Data on ten variants can be found in publication PMC7954794, “Protein context shapes the specificity of SH3 domain-mediated interactions in vivo” (Nature Communications, 2021).

The chains are these.
B1: S. cerevisiae Abp1 (full length; SH3 domain 535-592 mutated) / Hua2 (parent)
chain 1: MALEPIDYTTHSREIDAEYLKIVRGSDPDTTWLIISPNAKKEYEPESTGSSFHDFLQLFDETKVQYGLARVSPPGSDVEKIIIIGWCPDSAPLKTRASFAANFAAVANNLFKGYHVQVTARDEDDLDENELLMKISNAAGARYSIQTSSKQQGKASTPPVKKSFTPSKSPAPVSKKEPVKTPSPAPAAKISSRVNDNNDDDDWNEPELKERDFDQAPLKPNQSSYKPIGKIDLQKVIAEEKAKEDPRLVQKPTAAGSKIDPSSDIANLKNESKLKRDSEFNSFLGTTKPPSMTESSLKNDDDKVIKGFRNEKSPAQLWAERKAKQNSGNAETKAEAPKPEVPEDEPEGEPDVKDLKSKFEGLAASEKEEEEMENKFAPPPKKSEPTIISPKPFSKPQEPVKAEEAEQPKTDYKKIGNPLPGMHIEADNEEEPEENDDDWDDDEDEAAQPPLPSRNVASGAPVQKEEPEQEEIAPSLPSRNSIPAPKQEEAPEQAPEEEIEEEAEEAAPQLPSRSSAAPPPPPRRATPEKKPKENPWATAEYDYDAAEDNELTFVENDKIINIEFVDDDWWLGELEKDGSKGLFPSNYVSLGN
chain 2: MQQTKFGKMYLDHDSVVEYSEDEIVEADRITLGYKKRLSMIENQMRHLLEDFSLDVQQIEPILADLQKYYDAFLQLLQKRNKSLQCKRSTHQPVPSPMNSQTSTNAKVNLSGKLMKFQLNSVQKFDEENILRILQNKIEFEHYFQIDKGKKQKVLLLAVYQCLNGPTRLHKVLNIEGIIHNNSIRTILGKQVSSSKWTVFLYDVKLVLLAHRQDVPNLETSKMIVRYGDLFPCALYFKDHTAY

In this assay the parent is B1. Kind of assay: DHFR protein-fragment complementation in yeast (Abp1-DHFR F[1,2] x partner-DHFR F[3]), deep mutational scanning, second methotrexate selection vs reference. Particulars: with Hua2; S. cerevisiae, DHFR-PCA selection in liquid with methotrexate at 30 C, two 72 h selections (the score uses the second); reference = the pre-selection culture; not an affinity; value at the no-binding floor (a bound); scale: DMS score: mean over two replicates of log2(f_test/f_ref + 0.5)/ln 2, minus the synonymous-codon median.
As to chain 1 MALEPIDYTTHSREIDAEYLKIVRGSDPDTTWLIISPNAKKEYEPESTGSSFHDFLQLFDETKVQYGLARVSPPGSDVEKIIIIGWCPDSAPLKTRASFAANFAAVANNLFKGYHVQVTARDEDDLDENELLMKISNAAGARYSIQTSSKQQGKASTPPVKKSFTPSKSPAPVSKKEPVKTPSPAPAAKISSRVNDNNDDDDWNEPELKERDFDQAPLKPNQSSYKPIGKIDLQKVIAEEKAKEDPRLVQKPTAAGSKIDPSSDIANLKNESKLKRDSEFNSFLGTTKPPSMTESSLKNDDDKVIKGFRNEKSPAQLWAERKAKQNSGNAETKAEAPKPEVPEDEPEGEPDVKDLKSKFEGLAASEKEEEEMENKFAPPPKKSEPTIISPKPFSKPQEPVKAEEAEQPKTDYKKIGNPLPGMHIEADNEEEPEENDDDWDDDEDEAAQPPLPSRNVASGAPVQKEEPEQEEIAPSLPSRNSIPAPKQEEAPEQAPEEEIEEEAEEAAPQLPSRSSAAPPPPPRRATPEKKPKENPWATAEYDYDAAEDNPLTFVENDKIINIEFVDDDWWLGELEKDGSKGLFPSNYVSLGN [chain 1 E550P], the screen value is < -3.06.

Consider chain 1 MALEPIDYTTHSREIDAEYLKIVRGSDPDTTWLIISPNAKKEYEPESTGSSFHDFLQLFDETKVQYGLARVSPPGSDVEKIIIIGWCPDSAPLKTRASFAANFAAVANNLFKGYHVQVTARDEDDLDENELLMKISNAAGARYSIQTSSKQQGKASTPPVKKSFTPSKSPAPVSKKEPVKTPSPAPAAKISSRVNDNNDDDDWNEPELKERDFDQAPLKPNQSSYKPIGKIDLQKVIAEEKAKEDPRLVQKPTAAGSKIDPSSDIANLKNESKLKRDSEFNSFLGTTKPPSMTESSLKNDDDKVIKGFRNEKSPAQLWAERKAKQNSGNAETKAEAPKPEVPEDEPEGEPDVKDLKSKFEGLAASEKEEEEMENKFAPPPKKSEPTIISPKPFSKPQEPVKAEEAEQPKTDYKKIGNPLPGMHIEADNEEEPEENDDDWDDDEDEAAQPPLPSRNVASGAPVQKEEPEQEEIAPSLPSRNSIPAPKQEEAPEQAPEEEIEEEAEEAAPQLPSRSSAAPPPPPRRATPEKKPKENPWATAEYDYDAAEDNWLTFVENDKIINIEFVDDDWWLGELEKDGSKGLFPSNYVSLGN [chain 1 E550W], for which the screen value is < -3.06.

For the variant chain 1 MALEPIDYTTHSREIDAEYLKIVRGSDPDTTWLIISPNAKKEYEPESTGSSFHDFLQLFDETKVQYGLARVSPPGSDVEKIIIIGWCPDSAPLKTRASFAANFAAVANNLFKGYHVQVTARDEDDLDENELLMKISNAAGARYSIQTSSKQQGKASTPPVKKSFTPSKSPAPVSKKEPVKTPSPAPAAKISSRVNDNNDDDDWNEPELKERDFDQAPLKPNQSSYKPIGKIDLQKVIAEEKAKEDPRLVQKPTAAGSKIDPSSDIANLKNESKLKRDSEFNSFLGTTKPPSMTESSLKNDDDKVIKGFRNEKSPAQLWAERKAKQNSGNAETKAEAPKPEVPEDEPEGEPDVKDLKSKFEGLAASEKEEEEMENKFAPPPKKSEPTIISPKPFSKPQEPVKAEEAEQPKTDYKKIGNPLPGMHIEADNEEEPEENDDDWDDDEDEAAQPPLPSRNVASGAPVQKEEPEQEEIAPSLPSRNSIPAPKQEEAPEQAPEEEIEEEAEEAAPQLPSRSSAAPPPPPRRATPEKKPKENPWATAEYDYDAAEDNSLTFVENDKIINIEFVDDDWWLGELEKDGSKGLFPSNYVSLGN [chain 1 E550S], the screen value is < -3.06.

As for chain 1 MALEPIDYTTHSREIDAEYLKIVRGSDPDTTWLIISPNAKKEYEPESTGSSFHDFLQLFDETKVQYGLARVSPPGSDVEKIIIIGWCPDSAPLKTRASFAANFAAVANNLFKGYHVQVTARDEDDLDENELLMKISNAAGARYSIQTSSKQQGKASTPPVKKSFTPSKSPAPVSKKEPVKTPSPAPAAKISSRVNDNNDDDDWNEPELKERDFDQAPLKPNQSSYKPIGKIDLQKVIAEEKAKEDPRLVQKPTAAGSKIDPSSDIANLKNESKLKRDSEFNSFLGTTKPPSMTESSLKNDDDKVIKGFRNEKSPAQLWAERKAKQNSGNAETKAEAPKPEVPEDEPEGEPDVKDLKSKFEGLAASEKEEEEMENKFAPPPKKSEPTIISPKPFSKPQEPVKAEEAEQPKTDYKKIGNPLPGMHIEADNEEEPEENDDDWDDDEDEAAQPPLPSRNVASGAPVQKEEPEQEEIAPSLPSRNSIPAPKQEEAPEQAPEEEIEEEAEEAAPQLPSRSSAAPPPPPRRATPEKKPKENPWATAEYDYDAAEDNRLTFVENDKIINIEFVDDDWWLGELEKDGSKGLFPSNYVSLGN [chain 1 E550R], the screen value is -3.

As for chain 1 MALEPIDYTTHSREIDAEYLKIVRGSDPDTTWLIISPNAKKEYEPESTGSSFHDFLQLFDETKVQYGLARVSPPGSDVEKIIIIGWCPDSAPLKTRASFAANFAAVANNLFKGYHVQVTARDEDDLDENELLMKISNAAGARYSIQTSSKQQGKASTPPVKKSFTPSKSPAPVSKKEPVKTPSPAPAAKISSRVNDNNDDDDWNEPELKERDFDQAPLKPNQSSYKPIGKIDLQKVIAEEKAKEDPRLVQKPTAAGSKIDPSSDIANLKNESKLKRDSEFNSFLGTTKPPSMTESSLKNDDDKVIKGFRNEKSPAQLWAERKAKQNSGNAETKAEAPKPEVPEDEPEGEPDVKDLKSKFEGLAASEKEEEEMENKFAPPPKKSEPTIISPKPFSKPQEPVKAEEAEQPKTDYKKIGNPLPGMHIEADNEEEPEENDDDWDDDEDEAAQPPLPSRNVASGAPVQKEEPEQEEIAPSLPSRNSIPAPKQEEAPEQAPEEEIEEEAEEAAPQLPSRSSAAPPPPPRRATPEKKPKENPWATAEYDYDAAEDNTLTFVENDKIINIEFVDDDWWLGELEKDGSKGLFPSNYVSLGN [chain 1 E550T], the screen value is -3.03.

On to chain 1 MALEPIDYTTHSREIDAEYLKIVRGSDPDTTWLIISPNAKKEYEPESTGSSFHDFLQLFDETKVQYGLARVSPPGSDVEKIIIIGWCPDSAPLKTRASFAANFAAVANNLFKGYHVQVTARDEDDLDENELLMKISNAAGARYSIQTSSKQQGKASTPPVKKSFTPSKSPAPVSKKEPVKTPSPAPAAKISSRVNDNNDDDDWNEPELKERDFDQAPLKPNQSSYKPIGKIDLQKVIAEEKAKEDPRLVQKPTAAGSKIDPSSDIANLKNESKLKRDSEFNSFLGTTKPPSMTESSLKNDDDKVIKGFRNEKSPAQLWAERKAKQNSGNAETKAEAPKPEVPEDEPEGEPDVKDLKSKFEGLAASEKEEEEMENKFAPPPKKSEPTIISPKPFSKPQEPVKAEEAEQPKTDYKKIGNPLPGMHIEADNEEEPEENDDDWDDDEDEAAQPPLPSRNVASGAPVQKEEPEQEEIAPSLPSRNSIPAPKQEEAPEQAPEEEIEEEAEEAAPQLPSRSSAAPPPPPRRATPEKKPKENPWATAEYDYDAAEDNELTEVENDKIINIEFVDDDWWLGELEKDGSKGLFPSNYVSLGN [chain 1 F553E], for which the screen value was < -3.06.

Consider chain 1 MALEPIDYTTHSREIDAEYLKIVRGSDPDTTWLIISPNAKKEYEPESTGSSFHDFLQLFDETKVQYGLARVSPPGSDVEKIIIIGWCPDSAPLKTRASFAANFAAVANNLFKGYHVQVTARDEDDLDENELLMKISNAAGARYSIQTSSKQQGKASTPPVKKSFTPSKSPAPVSKKEPVKTPSPAPAAKISSRVNDNNDDDDWNEPELKERDFDQAPLKPNQSSYKPIGKIDLQKVIAEEKAKEDPRLVQKPTAAGSKIDPSSDIANLKNESKLKRDSEFNSFLGTTKPPSMTESSLKNDDDKVIKGFRNEKSPAQLWAERKAKQNSGNAETKAEAPKPEVPEDEPEGEPDVKDLKSKFEGLAASEKEEEEMENKFAPPPKKSEPTIISPKPFSKPQEPVKAEEAEQPKTDYKKIGNPLPGMHIEADNEEEPEENDDDWDDDEDEAAQPPLPSRNVASGAPVQKEEPEQEEIAPSLPSRNSIPAPKQEEAPEQAPEEEIEEEAEEAAPQLPSRSSAAPPPPPRRATPEKKPKENPWATAEYDYDAAEDNELTDVENDKIINIEFVDDDWWLGELEKDGSKGLFPSNYVSLGN [chain 1 F553D], for which the screen value was < -3.06.

Consider chain 1 MALEPIDYTTHSREIDAEYLKIVRGSDPDTTWLIISPNAKKEYEPESTGSSFHDFLQLFDETKVQYGLARVSPPGSDVEKIIIIGWCPDSAPLKTRASFAANFAAVANNLFKGYHVQVTARDEDDLDENELLMKISNAAGARYSIQTSSKQQGKASTPPVKKSFTPSKSPAPVSKKEPVKTPSPAPAAKISSRVNDNNDDDDWNEPELKERDFDQAPLKPNQSSYKPIGKIDLQKVIAEEKAKEDPRLVQKPTAAGSKIDPSSDIANLKNESKLKRDSEFNSFLGTTKPPSMTESSLKNDDDKVIKGFRNEKSPAQLWAERKAKQNSGNAETKAEAPKPEVPEDEPEGEPDVKDLKSKFEGLAASEKEEEEMENKFAPPPKKSEPTIISPKPFSKPQEPVKAEEAEQPKTDYKKIGNPLPGMHIEADNEEEPEENDDDWDDDEDEAAQPPLPSRNVASGAPVQKEEPEQEEIAPSLPSRNSIPAPKQEEAPEQAPEEEIEEEAEEAAPQLPSRSSAAPPPPPRRATPEKKPKENPWATAEYDYDAAEDNELTAVENDKIINIEFVDDDWWLGELEKDGSKGLFPSNYVSLGN [chain 1 F553A], for which the screen value is -3.03.

Regarding chain 1 MALEPIDYTTHSREIDAEYLKIVRGSDPDTTWLIISPNAKKEYEPESTGSSFHDFLQLFDETKVQYGLARVSPPGSDVEKIIIIGWCPDSAPLKTRASFAANFAAVANNLFKGYHVQVTARDEDDLDENELLMKISNAAGARYSIQTSSKQQGKASTPPVKKSFTPSKSPAPVSKKEPVKTPSPAPAAKISSRVNDNNDDDDWNEPELKERDFDQAPLKPNQSSYKPIGKIDLQKVIAEEKAKEDPRLVQKPTAAGSKIDPSSDIANLKNESKLKRDSEFNSFLGTTKPPSMTESSLKNDDDKVIKGFRNEKSPAQLWAERKAKQNSGNAETKAEAPKPEVPEDEPEGEPDVKDLKSKFEGLAASEKEEEEMENKFAPPPKKSEPTIISPKPFSKPQEPVKAEEAEQPKTDYKKIGNPLPGMHIEADNEEEPEENDDDWDDDEDEAAQPPLPSRNVASGAPVQKEEPEQEEIAPSLPSRNSIPAPKQEEAPEQAPEEEIEEEAEEAAPQLPSRSSAAPPPPPRRATPEKKPKENPWATAEYDYDAAEDNELTFVENDKIINIEFVDDDWWLGPLEKDGSKGLFPSNYVSLGN [chain 1 E573P], the screen value was < -3.06.

Turning to chain 1 MALEPIDYTTHSREIDAEYLKIVRGSDPDTTWLIISPNAKKEYEPESTGSSFHDFLQLFDETKVQYGLARVSPPGSDVEKIIIIGWCPDSAPLKTRASFAANFAAVANNLFKGYHVQVTARDEDDLDENELLMKISNAAGARYSIQTSSKQQGKASTPPVKKSFTPSKSPAPVSKKEPVKTPSPAPAAKISSRVNDNNDDDDWNEPELKERDFDQAPLKPNQSSYKPIGKIDLQKVIAEEKAKEDPRLVQKPTAAGSKIDPSSDIANLKNESKLKRDSEFNSFLGTTKPPSMTESSLKNDDDKVIKGFRNEKSPAQLWAERKAKQNSGNAETKAEAPKPEVPEDEPEGEPDVKDLKSKFEGLAASEKEEEEMENKFAPPPKKSEPTIISPKPFSKPQEPVKAEEAEQPKTDYKKIGNPLPGMHIEADNEEEPEENDDDWDDDEDEAAQPPLPSRNVASGAPVQKEEPEQEEIAPSLPSRNSIPAPKQEEAPEQAPEEEIEEEAEEAAPQLPSRSSAAPPPPPRRATPEKKPKENPWATAEYDYDAAEDNELTFVENDKIINIPFVDDDWWLGELEKDGSKGLFPSNYVSLGN [chain 1 E563P], the screen value is -3.04.
